Test results published in patent US20260183437A1 (ABDERA THERAPEUTICS, published 2026).

Tests used:
DLL3 on cells [1] = target: T1, DLL3 on cells (UniProt Q9NYJ7 27-618, limits assumed); assay: flow cytometry on SHP-77 cells
T1 construct: whole, on cells; also called DLL3 on SHP-77, NCI-H82 (H82), NCI-H69 and HEK-DLL3 cells
T1 sequence (looked up): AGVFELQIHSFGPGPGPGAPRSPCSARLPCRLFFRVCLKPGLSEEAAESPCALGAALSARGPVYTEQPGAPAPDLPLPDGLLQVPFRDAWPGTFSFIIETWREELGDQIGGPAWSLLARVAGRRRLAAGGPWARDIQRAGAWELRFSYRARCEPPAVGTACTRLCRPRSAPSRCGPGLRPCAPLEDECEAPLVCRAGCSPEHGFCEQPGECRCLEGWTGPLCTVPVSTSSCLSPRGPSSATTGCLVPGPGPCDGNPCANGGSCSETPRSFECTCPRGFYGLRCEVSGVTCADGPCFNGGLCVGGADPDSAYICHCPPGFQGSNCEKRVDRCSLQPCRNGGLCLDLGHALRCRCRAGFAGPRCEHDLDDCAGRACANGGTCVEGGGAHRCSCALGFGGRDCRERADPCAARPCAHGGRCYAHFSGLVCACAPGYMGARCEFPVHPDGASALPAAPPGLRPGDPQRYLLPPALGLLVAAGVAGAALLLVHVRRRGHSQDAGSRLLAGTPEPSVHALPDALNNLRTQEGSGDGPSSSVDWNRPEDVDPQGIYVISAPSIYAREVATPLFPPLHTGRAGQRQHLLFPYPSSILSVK

DLL3 on cells [2] = target: T1, DLL3 on cells; assay: flow cytometry on HEK-DLL3 cells

B1: Rovalpituzumab (antibody, V domains shown)
VH: QVQLVQSGAEVKKPGASVKVSCKASGYTFTNYGMNWVRQAPGQGLEWMGWINTYTGEPTYADDFKGRVTMTTDTSTSTAYMELRSLRSDDTAVYYCARIGDSSPSDYWGQGTLVTVSS
VL: EIVMTQSPATLSVSPGERATLSCKASQSVSNDVVWYQQKPGQAPRLLIYYASNRYTGIPARFSGSGSGTEFTLTISSLQSEDFAVYYCQQDYTSPWTFGQGTKLEIK
Question: What does the source list for B1?
Answer: EC50 (DLL3 on cells [1]): 110 pM; EC50 (DLL3 on cells [2]): 60 pM
